Test system: human HL60 cells
Assay: SWATH-MS proteomics, differential protein representation, akirin2 KO vs WT HL60 cells
Assay type: cell-based
Experimental: Total proteins were extracted from WT and akirin2 KO HL60 cells using the AllPrep DNA/RNA/Protein Mini Kit (Qiagen) and protein concentration was determined using the BCA Protein Assay with BSA (Sigma–Aldrich) as standard. Protein extracts (150 µg per sample, n=3 biological replicates) from each WT and KO cells were trypsin digested using the FASP Protein Digestion Kit (Expedeon Ltd., Abcam, Cambridge, U.K.) and sequencing grade trypsin (Promega, Madison, WI, U.S.A.) following manufacturer’s recommendations. The resulting peptides were finally desalted on to OMIX Pipette tips C18 (Agilent Technologies, Santa Clara, CA, U.S.A.), dried down and stored at −20 °C until mass spectrometry analysis. […] Three micrograms of each protein digest from the three biological replicates of WT and akirin2 KO HL60 cells were used for the generation of the reference spectral ion library as part of the SWATH-MS analysis.
Peptides were eluted in a 120-min gradient from 5 to 30% solvent B in solvent A followed by 15-min gradient from 30 to 60% solvent B in solvent A (solvent A: 0.1% formic acid in water, solvent B: 0.1% formic acid in acetonitrile) and directly injected into the mass spectrometer for analysis. For IDA experiments, the mass spectrometer was set to scanning full spectra (350–1400 m/z) using 250 ms accumulation time per spectrum, followed by up to 50 MS/MS scans (100–1500 m/z). Candidate ions with a charge state between +2 and +5 counts per second above a minimum threshold of 100 were isolated for fragmentation. One MS/MS spectrum was collected for 100 ms, before adding those precursor ions to the exclusion list for 15 s (mass spectrometer operated by Analyst TF 1.6, AB Sciex). Dynamic background subtraction was turned off. MS/MS analyses were recorded in high-sensitivity mode with rolling collision energy on and a collision energy spread of 5. For SWATH quantitative analysis, six independent samples (three replicates from WT and akirin2 KO HL60 cells, 5 µg each) were subjected to the cyclic DIA of mass spectra using the SWATH variable windows calculator (V 1.0, AB Sciex) and the SWATH acquisition method editor (AB Sciex), similar to established methods. […] For these experiments, a 50-ms survey scan (350–1400 m/z) was acquired at the beginning of each cycle, and SWATH–MS/MS spectra were collected from 100–1500 m/z for 70 ms at high-sensitivity mode, resulting in a cycle time of 3.6 s. Collision energy for each window was determined according to the calculation for a charge +2 ion-centered upon the window with a collision energy spread of 15. To create a spectral library of all the detectable peptides in the samples, the IDA MS raw files were combined and subjected to database search in unison using ProteinPilot software v. 5.0.1 (AB Sciex) with the Paragon algorithm. […] The detected protein threshold was set at 0.05. An independent false discovery rate (FDR) analysis, using the target–decoy approach provided by Protein Pilot (AB Sciex; https://sciex.com/products/software/proteinpilot-software), was used to assess the quality of identifications. Positive identifications were considered when identified proteins reached 1% of global FDR. […] Global normalization was performed according to the Total Area Sums (TAS) of all detected proteins in the samples. […] Heatmaps were prepared using the Heatmapper (http://www.heatmapper.ca/expression/) with average linkage and Euclidean distance measurement method.

[1] = SWATH-MS, akirin2 KO vs WT HL60 cells, over-represented in KO
[2] = Over-represented in KO, KO vs WT HL60 cells

Molecule | Fold Change [1] | Log (Fold Change) [1] | Fold Change [2] | Log (Fold Change) [2]
Pre-rRNA-processing protein TSR1 homolog (protein, UniProt Q2NL82 1-804, looked up) Pre-rRNA-processing protein …: MAAHRPGPLKQQNKAHKGGRHRGRGSAQRDGKGRLALKTLSKKVRKELSRVDQRHRASQLRKQKKEAVLAEKRQLGGKDGPPHQVLVVPLHSRISLPEAMQLLQDRDTGTVHLNELGNTQNFMLLCPRLKHRWFFTSARPGDLHVVLDMAKVADTILFLLDPLEGWDSTGDYCLSCLFAQGLPTYTLAVQGISGLPLKKQIDTRKKLSKAVEKRFPHDKLLLLDTQQEAGMLLRQLANQKQQHLAFRDRRAYLFAHAVDFVPSEENNLVGTLKISGYVRGQTLNVNRLLHIVGYGDFQMKQIDAPGDPFPLNPRGIKPQKDPDMAMEICATDAVDDMEEGLKVLMKADPGRQESLQAEVIPDPMEGEQTWPTEEELSEAKDFLKESSKVVKKVPKGTSSYQAEWILDGGSQSGGEGDEYEYDDMEHEDFMEEESQDESSEEEEEYETMTIGESVHDDLYDKKVDEEAEAKMLEKYKQERLEEMFPDEVDTPRDVAARIRFQKYRGLKSFRTSPWDPKENLPQDYARIFQFQNFTNTRKSIFKEVEEKEVEGAEVGWYVTLHVSEVPVSVVECFRQGTPLIAFSLLPHEQKMSVLNMVVRRDPGNTEPVKAKEELIFHCGFRRFRASPLFSQHTAADKHKLQRFLTADMALVATVYAPITFPPASVLLFKQKSNGMHSLIATGHLMSVDPDRMVIKRVVLSGHPFKIFTKMAVVRYMFFNREDVLWFKPVELRTKWGRRGHIKEPLGTHGHMKCSFDGKLKSQDTVLMNLYKRVFPKWTYDPYVPEPVPWLKSEISSTVPQGGME | 3.379 | 0.5288 |  | 
sp¦Q9Y244¦POMP_HUMAN (protein, UniProt Q9Y244 1-141, looked up) Proteasome maturation protein: MNARGLGSELKDSIPVTELSASGPFESHDLLRKGFSCVKNELLPSHPLELSEKNFQLNQDKMNFSTLRNIQGLFAPLKLQMEFKAVQQVQRLPFLSSSNLSLDVLRGNDETIGFEDILNDPSQSEVMGEPHLMVEYKLGLL |  |  | 1.341 | 0.1275
sp¦O14737¦PDCD5_HUMAN (protein, UniProt O14737 2-125, looked up) Programmed cell death protein …: ADEELEALRRQRLAELQAKHGDPGDAAQQEAKHREAEMRNSILAQVLDQSARARLSNLALVKPEKTKAVENYLIQMARYGQLSEKVSEQGLIEILKKVSQQTEKTTTVKFNRRKVMDSDEDDDY |  |  | 1.307 | 0.1162
sp¦P27348¦1433T_HUMAN (protein, UniProt P27348 1-245, looked up) 14-3-3 protein theta: MEKTELIQKAKLAEQAERYDDMATCMKAVTEQGAELSNEERNLLSVAYKNVVGGRRSAWRVISSIEQKTDTSDKKLQLIKDYREKVESELRSICTTVLELLDKYLIANATNPESKVFYLKMKGDYFRYLAEVACGDDRKQTIDNSQGAYQEAFDISKKEMQPTHPIRLGLALNFSVFYYEILNNPELACTLAKTAFDEAIAELDTLNEDSYKDSTLIMQLLRDNLTLWTSDSAGEECDAAEGAEN |  |  | 1.296 | 0.1126
sp¦P11279¦LAMP1_HUMAN (protein, UniProt P11279 29-417, looked up) Lysosome-associated membrane …: AMFMVKNGNGTACIMANFSAAFSVNYDTKSGPKNMTFDLPSDATVVLNRSSCGKENTSDPSLVIAFGRGHTLTLNFTRNATRYSVQLMSFVYNLSDTHLFPNASSKEIKTVESITDIRADIDKKYRCVSGTQVHMNNVTVTLHDATIQAYLSNSSFSRGETRCEQDRPSPTTAPPAPPSPSPSPVPKSPSVDKYNVSGTNGTCLLASMGLQLNLTYERKDNTTVTRLLNINPNKTSASGSCGAHLVTLELHSEGTTVLLFQFGMNASSSRFFLQGIQLNTILPDARDPAFKAANGSLRALQATVGNSYKCNAEEHVRVTKAFSVNIFKVWVQAFKVEGGQFGSVEECLLDENSMLIPIAVGGALAGLVLIVLIAYLVGRKRSHAGYQTI |  |  | 1.301 | 0.1143
Myristoylated alanine-rich C-kinase substrate (protein, UniProt P29966 2-332, looked up) Myristoylated alanine-rich …: GAQFSKTAAKGEAAAERPGEAAVASSPSKANGQENGHVKVNGDASPAAAESGAKEELQANGSAPAADKEEPAAAGSGAASPSAAEKGEPAAAAAPEAGASPVEKEAPAEGEAAEPGSPTAAEGEAASAASSTSSPKAEDGATPSPSNETPKKKKKRFSFKKSFKLSGFSFKKNKKEAGEGGEAEAPAAEGGKDEAAGGAAAAAAEAGAASGEQAAAPGEEAAAGEEGAAGGDPQEAKPQEAAVAPEKPPASDETKAAEEPSKVEEKKAEEAGASAAACEAPSAAGPGAPPEQEAAPAEEPAAAAASSACAAPSQEAQPECSPEAPPAEAAE | 3.833 | 0.5836 |  | 
sp¦Q16543¦CDC37_HUMAN (protein, UniProt Q16543 1-378, looked up) Hsp90 co-chaperone Cdc37: MVDYSVWDHIEVSDDEDETHPNIDTASLFRWRHQARVERMEQFQKEKEELDRGCRECKRKVAECQRKLKELEVAEGGKAELERLQAEAQQLRKEERSWEQKLEEMRKKEKSMPWNVDTLSKDGFSKSMVNTKPEKTEEDSEEVREQKHKTFVEKYEKQIKHFGMLRRWDDSQKYLSDNVHLVCEETANYLVIWCIDLEVEEKCALMEQVAHQTIVMQFILELAKSLKVDPRACFRQFFTKIKTADRQYMEGFNDELEAFKERVRGRAKLRIEKAMKEYEEEERKKRLGPGGLDPVEVYESLPEELQKCFDVKDVQMLQDAISKMDPTDAKYHMQRCIDSGLWVPNSKASEAKEGEEAGPGDPLLEAVPKTGDEKDVSV |  |  | 1.314 | 0.1187
sp¦P60981¦DEST_HUMAN (protein, UniProt P60981 2-165, looked up) Destrin: ASGVQVADEVCRIFYDMKVRKCSTPEEIKKRKKAVIFCLSADKKCIIVEEGKEILVGDVGVTITDPFKHFVGMLPEKDCRYALYDASFETKESRKEELMFFLWAPELAPLKSKMIYASSKDAIKKKFQGIKHECQANGPEDLNRACIAEKLGGSLIVAFEGCPV |  |  | 1.321 | 0.1208
sp¦O00154¦BACH_HUMAN (protein, UniProt O00154 1-380, looked up) Cytosolic acyl coenzyme A …: MKLLARALRLCEFGRQASSRRLVAGQGCVGPRRGCCAPVQVVGPRADLPPCGACITGRIMRPDDANVAGNVHGGTILKMIEEAGAIISTRHCNSQNGERCVAALARVERTDFLSPMCIGEVAHVSAEITYTSKHSVEVQVNVMSENILTGAKKLTNKATLWYVPLSLKNVDKVLEVPPVVYSRQEQEEEGRKRYEAQKLERMETKWRNGDIVQPVLNPEPNTVSYSQSSLIHLVGPSDCTLHGFVHGGVTMKLMDEVAGIVAARHCKTNIVTASVDAINFHDKIRKGCVITISGRMTFTSNKSMEIEVLVDADPVVDSSQKRYRAASAFFTYVSLSQEGRSLPVPQLVPETEDEKKRFEEGKGRYLQMKAKRQGHAEPQP |  |  | 1.305 | 0.1157
Inter-alpha-trypsin inhibitor heavy chain H2 (protein, UniProt P19823 55-702, looked up) Inter-alpha-trypsin inhibitor …: SLPGESEEMMEEVDQVTLYSYKVQSTITSRMATTMIQSKVVNNSPQPQNVVFDVQIPKGAFISNFSMTVDGKTFRSSIKEKTVGRALYAQARAKGKTAGLVRSSALDMENFRTEVNVLPGAKVQFELHYQEVKWRKLGSYEHRIYLQPGRLAKHLEVDVWVIEPQGLRFLHVPDTFEGHFDGVPVISKGQQKAHVSFKPTVAQQRICPNCRETAVDGELVVLYDVKREEKAGELEVFNGYFVHFFAPDNLDPIPKNILFVIDVSGSMWGVKMKQTVEAMKTILDDLRAEDHFSVIDFNQNIRTWRNDLISATKTQVADAKRYIEKIQPSGGTNINEALLRAIFILNEANNLGLLDPNSVSLIILVSDGDPTVGELKLSKIQKNVKENIQDNISLFSLGMGFDVDYDFLKRLSNENHGIAQRIYGNQDTSSQLKKFYNQVSTPLLRNVQFNYPHTSVTDVTQNNFHNYFGGSEIVVAGKFDPAKLDQIESVITATSANTQLVLETLAQMDDLQDFLSKDKHADPDFTRKLWAYLTINQLLAERSLAPTAAAKRRITRSILQMSLDHHIVTPLTSLVIENEAGDERMLADAPPQDPSCCSGALYYGSKVVPDSTPSWANPSPTPVISMLAQGSQVLESTPPPHVMRVEND | 3.859 | 0.5865 |  | 

Reference: PMC8298264, “Function of cofactor Akirin2 in the regulation of gene expression in model human neutrophil-like HL60 cells” (Bioscience Reports, 2021)
